Test: soluble on expression in E. coli; label from the status in PepcDB or PDB records

Row | Sequence | soluble on expression in E. coli
1 | MGSDKIHHHHHHAKSVATTEHLKRYTEAISHDSCQGRKPFSEGADRAVNYIAHQMKEVGLKPINGDSYFQQVNIISSRTRCPDPMVLKTPKGKIPLDWLEGYTAFSARIEPEIDIDNAELVFAGYGIVAPEYGKNDFEGIENPQDKVAVVIVNDPGLGSDNTDYFNGDIMTYYGRWMYKFEEGARQGLKGVLIIHEDRGAGYPWSVVRASAQSKMYVDSDSDAYHCPLNGWIQFNAAKQLLADNGYDIDQLIEQSKSPDFKPISLKSTVTVSMRNTFDRQQSPNVIGYIPGSGNTDESVIYLGHWDHLGYGAPINGDSIINGATDNAVAIAWMLEMARCFNVLKEKPRRNIVFLSPTCEETGFLGTKYYVEHPLFPIDKIAAVINLDVFPLWGENNDVTITGYGNSELDDTLAELAKKYNRYIMPDPDAYNGMFYRSDHFPFVQKGIPAMFAKGWNDNRKQGKEWAKEHIAHYWAETYHKPTDQTHPDTDDYSGLLQEVQLFFDLGYKLAQDTGYPKWKPKSEFANVLKR | not soluble
2 | SLELKITDFKVFVAQANFEWAFVRIYSKDLYGTGEAGPAPGLKGMESEFIQLLIGEDAFKVNRIAEKLRYATLYSGTTVYHLISAINIALYDLIGKYLNVPIYKLLGGDKTEIPVYVDAHGGKGLEAINALHLPVNLPWIKEAEVETNRLITTNNPVHGRLSMEKWNEDYSPEAYAKRALKMKNEGYKAMKFDLDVPTPYIDLRRVRNGDLSLKDIDYMVDIVKAVRESVGDEVEIMFDLHWRYNLNTAIRICKALEPYRLRWLEDPMPAIMAVSNYDELKLLTSQCSVPIETGENLYTVYQFKDLLNTGVRVWAPDIVKAGGITEGRRIAELAAMYDIEYSPHNIASPIGTMAHAHVGSIANTFGFVEFHGHDVPFWNEIVKPKRKIIEDGVIKLTDDPGLGIDLDDEVMRKYWPTYEL | soluble
3 | MTTIFKLLRLPKNTIFQVLRQFKCLDLIAFSVCSKYAKSCVMYSTTSNKQKTIRIEFDDTIQFDLSPITKHICLFELLADQRNVLRKNFNECEMIINGNNFIRTEWSIAGFAIKDWMKHFLDIFGGPKIDIISFSGKGFNRTWFPRDLFRIFNAQSFYCVIDFILKILRSFQYPESLTTCKGKSLGRKPLNTIFILNFKSVKYYGRHQFQLTLNQLLAMNISTLKLLDSAISSKNLNFFLKHWLNGSNKRLEVLEIFGLNAYSPTIIFKNVAYQVILEDEIFSIYNEVFTFGYEIERSCDETRAAIFINSMPEVSHYCFRMIVGEVPNYLIIY | not soluble
4 | GPGSMYRSDTDERKRRQSVSWRKRASFIELDCGEDSFFVANNYKVIGVADGVGGWRAEGVDPSLFANALMENAKLFAETHRGERDPEKILDAAYTKVVKDGIVKVGSSTACVATLRKDDDGSHKLDVANLGDSGVMVVRNRSMYFRAHEKVHGFNAPFQLAVLPQPMVGRAFSDRVQDCVRESVPVQEGDVIVMGTDGLFDNRFNSQLAADAGWIGKVEESPIAKIPLVGFFLSGILDEKIDYVDPYRVAQRIITDAYKTSVNPDTNSPWASMLRQFGQTDAKGGKPDDITVLLSRVSTREELSNSTSW | not soluble
5 | MPLIRNYDYYDLLNVAPSTSAHRPTVMVTSSRSYMEPQKSRIYYGKNEWRGGNTTIHDPTEFEETTMDKNANEIAGDDKRKKKRWRDLLFPNSRHSSRKDKENSNVSVATRSLSSVSFRSEKPSRRRESGSLSRHRYIPPPPLPMPPRRIMTSTSMGYSDDAMTSSSSHTTTDYDDIVPVPTPSYVIYPAASIAQASRRQQQGSAKNRIFRSPTYHHDAFVNSHEWTLSRSISEMKLGIVGTSQSGKTALVHRYLTGTYTPDESPEGGRFKKEVVIEGQSHLLLIRDEGQQHLDVQFCQWVDAVVFVFNVCSIQSYDSIQALAHEMSKYRNISDLPLILVGTKDHISEKRARVITEDEGRQLAAQMKRCSYFETSSTYGTNVERVFKEACCKIIQLRVRSQVGAAAAASSQARTPTPTHSESGGRKDYQDPSRYISSNSFVMPSNMRPSFPSNSTRRNTVHHRGEHPQQQQYQQQPPSSSRTASERSMSAMLGTPYGNRMPAGVSPSASQKSVHSIANGCYSRSSAALLDSDTPAVNSYLIDSMSSAGFPLSQSGANQVSASTSHLPTPSSTPNTQRKNRRISNIFRQKDHQEEKSKMIESLNLGIGRAIPIKQGNLYKKSSKSALNREWKKKYVCLYSDGRLTYHTNLKEYMDKTAHGKEMDLKLATIRITGRLHPLHSHRVASSVDPMNGGGGGGTPTLKSYEPRRSDVGANSGDGTSGGGSDDAIKENQRQHFSPPAMPQTVAGKKKRESRKIGTNSKHNDEEDECFEVINNCLMRWEFCAGSLEERDEWIQAIGGEIEKSLGKEVANAKTNNRAVANRPDIAALRSIPGNGRCADCGNPSSEWASINLGIIICIECSGIHRNLGSHISKVRGLELDQWPVEHLAVMQAIGNDKANEMWEFGLLNGERKPTPESSREEKERFIDRKYVQKAFLKPIASGEPVTSQLISAVLARDVMSLNVLLANGMSVEEINTTTKDGRTVLHLAASIGSVELAQLLIWHNADAQILDNNGRSCLFYARSNGFREVFDMLVTAGLSPDYGLPQEINDFSQMPEFFAMGSTSNRDYSTSGDEMYGSRRISMGPPPQVPARRYLPQQPELDETSVI | not soluble
6 | MSLTQRIDFQTDPSRYRHWRVAYDGEIANLYMDVDEQGGLFPGYELKLNSYDLGVDIELADIVQRMRFEHPEVKVVVMQSGKDRVFCAGANIRMLGGASHAHKVNFCKFTNETRNTYEAAEADSGQKYIAAVKGACAGGGYELALACNYIMLTNDSSSSVALPEVPLLAVLPGTGGLTRVTDKRKVRRDLADVFCSVEEGVRGQRAVDWRLVDEIAPNSKFDEVVQERAREFASASVKPSGLTGIALTPLDRRFAEDGSVTYSTVEVVVEREAGRATLTISGPTDAAPDTVDALQAQGAEAWILRAARELDDAILHLRLNERRIGTLVIQTQGDGAAVAAHEALLLENRDHWLANEILQHWKRVLKRVDMTSRSLVAIVEHGSCFAGPLAELLWAVDRSYMMLEEFEGDNRPLAAITLSPGNFGTYPMGNDLSRLATRFLGTPEAVEAARARIGEALEAEEAEKLGLVTYVLDDIDWEDEVRVFLEERASFSPDAMTGMEANLRFAGPETMETRIFGRLTAWQNWIFQRPNAVGPDGALQRYGTGVRGDYDMERVEGHHHHHH | soluble
7 | MLSIHDPLLIFTDLDGTLLNSHTFEWQPAAPWLTRLHESGVPVILCSSKTAAEMLQLQTTLNLQGLPLIAENGAVIQLDVHWEDHPNYPRLIAGISHNEIRLVLHKLREKEQFKFTTFDDVDDQVISEWTGLNRAQSALTRLHEASVSLIWRDSDERMAQFVARLNDLGLQFVHGARFWHVLDASAGKDQAANWLIEAYRRQWRARPLTLGLGDGPNDAPLLDVMDYAVVVKGLNREGVHLRNDDPQRVYRSQNEGPDGWREGMDYFFSRSLEHHHHHH | soluble
8 | MSNELPWQVWTPDDLAPPPETFVPVEADNVTLTEDTPEPELTAEQQLEQELAQLKIQAHEQGYNAGLAEGRQKGHAQGYQEGLAQGLEQGQAQAQTQQAPIHARMQQLVSEFQNTLDALDSVIASRLMQMALEAARQVIGQTPAVDNSALIKQIQQLLQQEPLFSGKPQLRVHPDDLQRVEEMLGATLSLHGWRLRGDPTLHHGGCKVSADEGDLDASVATRWQELCRLAAPGVL | not soluble
9 | MGSDKIHHHHHHMSKILMVGSGPVAIQLARLCNLHGEHMVDMVSRVHASTKSKRVFDAYHRDGFFSVMTQNDAHQCFSGKFTVRHFFKDVKDITQYYDVVILACTADAYRPILQQLSKSTLKRIKQIILVSPTLGSHMLVKQILSDVHCEGEVISFSTYLGDTRIFDKAQPHCVLTTRVKSKLFVGSTHSQSITLYKLKSLFDYLNIELTTMDTPLHAEIHNSSLYVHPPLFMNQFSLKAVFEGTKVPVYVYKLFPEGPITMTLIHEMRLMWQEMMMILKKLKVPSVNLLKFMVKENYPIRDETMREVDIESFENLSAIHQEYLLYVRYTAILIDPFSNPDDQGAYFDFSAVPYKHVDTDEQGVIHIPRMPSEDYYRTLMIQAIGRALNVATPMIDTMLLRYETTVKQYCDTHLHQQLSKQFELHHFKQDLALVTNYLTFYR | not soluble
10 | AHHHHHHASAKWVCKICGYIYDEDAGDPDNGISPGTKFEELPDDWVCPICGAPKSEFEKLEDGSRRMDKVDLQLIKILSQNSRLTYRELAEMLGTTRQRVARKVDKLKKLGIIRKFTIIPNLEKLNYMYAILLIKVKATENIYQVAKVLKDHEDVKILELGVGKYNIIAHVLVPKDIKKAQEKVNDVIKEINGIEDLEVEFVSDIPKFELL | soluble
11 | MLSKKRSMSFAKRTLLSVSLSLVSGLSFAKMYELPEDGSRLIGRLENHVVQQGETMANIAKHYDVGMLALMAANKGVDPFLPQEGRVLTIPSQLILPEVPHQGIVINLAELRLYYFPEGEDVVHVFPVGIGRIGRDTPVMTTSISQKRPNPTWTPPASIRAEYRAKGVDLPAVVPAGPDNPLGLFALRLAYGNGEYLIHGTNKDFGIGMRVSAGCIRMDPSDIEWLFDKVRRGEKVNIINQPVKVSLEPDRSVFVEAHEPLTRSNGEKDHLQVPKELGWWLNEFGLTNVKAKAVIAAQNGVPVEITAP | not soluble
12 | IVSREAKLQFAYLENFKTKMRSTVSVREGQGVVLLCGPPPHSGELSYAWIFNEYPSFVEEDSRRFVSQETGHLYISKVEPSDVGNYTCVVTSMVTNARVLGSPTPLVLRSDGVMGEYEPKIEVQFPETLPAAKGSTVKLECFALGNPIPQINWRRSDGLPFSSKIKLRKFSGVLEIPNFQQEDAGSYECIAENSRGKNVARGRLTYYAKPHWVQLIKDVEIAVEDSLYWECRASGKPKPSYRWLKNGAALVLEERTQIENGALTISNLSVTDSGMFQCIAENKHGLVYSSAELKVVASAPDFSKNPMKKLVQVQVGSLVSLDCKPRASPRALSSWKKGDVSVQEHERISLLNDGGLKIANVTKADAGTYTCMAENQFGKANGTTHLVVTEPTRITLAPSNMDVSVGESVILPCQVQHDPLLDIIFTWYFNGALADFKKDGSHFEKVGGSSSGDLMIRNIQLKHSGKYVCMVQTGVDSVSSAADLIVRGSPGPPENVKVDEITDTTAQLSWKEGKDNHSPVISYSIQARTPFSVGWQTVTTVPEVIDGKTHTATVVELNPWVEYEFRVVASNKIGGGEPSLPSEKVRTEEAVPEVPPSEVNGGGGSRSELVITWDPVPEELQNGEGFGYVVAFRPLGVTTWIQTVVTSPDTPRYVFRNESIVPYSPYEVKVGVYNNKGEGPFSPVTTVFSAEEEPTVAPSQVSANSLSSSEIEVSWNTIPWKLSNGHLLGYEVRYWNGGGKEESSSKMKVAGNETSARLRGLKSNLAYYTAVRAYNSAGAGPFSATVNVTTKKTPPSQPPGNVVWNATDTKVLLNWEQVKAMENESEVTGYKVFYRTSSQNNVQVLNTNKTSAELVLPIKEDYIIEVKATTDGGDGTSSEQIRIPRITSMDARGSTSAISNVHPMSSYMPIVLFLIVYVLW | soluble
13 | MGSDKIHHHHHHMLSVSSLDGEWNITEVDGQKISTERMPFIGFDVAQKRIYGNSGCNRMMGSFEADSLKPGTLKFGQIGSTRMMCPDMKTEQMVLGALDKVTSFQTVSDKPDVITLCNQDGQPLMTLEKKAAPEVSLSDLSGEWVIELVNGKKIVGTAEVTPFIGFNLDESRIYGNVGCNTINGALMQEDGKPNSLRFDNVATTMMMCPDMETETIVLNALNETKSFSMKDDKVYLLGENGNELLVLKKQ | not soluble
14 | MGSDKIHHHHHHMKIAVVGAGLTGLKTAKELAEHAKVVVFEPDDVGGLVATFREFSIEKFYHHCFRDDAFLLEEIKRCGLKSKLVWKIAKTGFAANGKIYPLNTPFEILRYPLLTFGEKIRLARFTLKSRKLNYEDFDDVGVSEGIREELGEGLLERFFMPLLRSKFGENAEKVSYAWLLGRVAIRSNRKYSGEEIGYIRHGFQQLVDKMAEGLEIRRERARIRKNARWDVNGEDFDAVVYTAPLSELGELAEKLGIPEVRYQSSVCALIGAEETLTENIYWTNIADKMSFGAVIEHTNFMPFEDYGIHLMYLAAYSTPDGWLFNLSDKEIEKLFLSDLRKLGFKTESVRFVRVFKAKYSGPIYEKGYRRKITPYRVAEGFYVAGMTSRPNYPERSMNGSIRAGKEVAEQVKEDLL | not soluble
